Test results from patent publication US20250361288A1 (Gilead, published 2025).
Positions count from the first letter of the chain named. Names and notes keep the numbering of the source.

T1: mouse HVEM extracellular domain fused with an Fc fragment at the C-terminus (mouse, UniProt Q80WM9 39-206, limits assumed)
T1 construct: extracellular domain; Bought; also called mHVEM; not shown: Fc fragment at the C-terminus
T1 sequence (looked up): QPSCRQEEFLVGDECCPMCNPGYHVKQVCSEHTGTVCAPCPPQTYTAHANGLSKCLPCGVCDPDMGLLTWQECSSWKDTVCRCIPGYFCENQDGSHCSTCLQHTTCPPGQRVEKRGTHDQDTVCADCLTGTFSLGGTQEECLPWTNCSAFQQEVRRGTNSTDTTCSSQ

T2: recombinant DcR3 protein (human DcR3 residues 33-300 linked to the N-terminal of rabbit Fc) (human, UniProt O95407 33-300)
T2 construct: range 33-300; Expressed in Expi293F, purified on protein A; not shown: rabbit Fc
T2 sequence (looked up): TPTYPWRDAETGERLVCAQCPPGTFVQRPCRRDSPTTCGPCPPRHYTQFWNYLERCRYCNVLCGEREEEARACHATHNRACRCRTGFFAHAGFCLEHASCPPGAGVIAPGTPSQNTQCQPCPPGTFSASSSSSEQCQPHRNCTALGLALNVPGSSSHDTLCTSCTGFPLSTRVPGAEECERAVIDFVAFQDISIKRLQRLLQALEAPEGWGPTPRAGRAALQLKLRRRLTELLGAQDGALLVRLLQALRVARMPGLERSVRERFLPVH

B1: LIGHT-5 (ligand)
chain: DGPAGSWEQLIQERRSHEVNPAAHLTGANSSLTGSGGPLLWETQLGLAFLRGLSYHDGALVVTKAGYYYIYSKVQLGGVGCPLGLASPITHGLYKRTPRYPEELELLVSQQSPCGSATSSSRVWQDSSFLGGVVHLEAGEKVVVRVLDERLVRLLDGTRSYFGAFMV
notes: Printed mutations: T161P, R189S, W198Q, R228L; Soluble protein carries an N-terminal His tag
B2: LIGHT (74-240) (ligand)
chain: B1 chain with P88T, S116R, Q125W, L155R
notes: Soluble protein carries an N-terminal His tag; also called wild-type human LIGHT; LIGHT (74-240) (wt)
B3: LIGHT-1 (ligand)
chain: B1 chain with V79M, P88T, S116R
notes: Printed mutations: V152M, W198Q, R228L; Soluble protein carries an N-terminal His tag
B4: LIGHT-2 (ligand)
chain: B1 chain with P88T
notes: Printed mutations: R189S, W198Q, R228L; Soluble protein carries an N-terminal His tag
B5: LIGHT-3 (ligand)
chain: B1 chain with G77A, P88T, S116R, Q125W, L147S, L155R
notes: Printed mutations: G150A, L220S; Soluble protein carries an N-terminal His tag
B6: LIGHT-7 (ligand)
chain: B1 chain with P82R, P88T, S116R, Q125W, L147Q, L155R, R159H
notes: Printed mutations: P155R, L220Q, R232H; Soluble protein carries an N-terminal His tag
B7: LIGHT-52 (ligand)
chain: B1 chain with P88T, S116R, Q125W, L147S, L155R
notes: Printed mutations: L220S; Soluble protein carries an N-terminal His tag
B8: human HVEM extracellular domain fused with an Fc fragment at the C-terminus (Fc fusion, UniProt Q92956 39-202, looked up)
chain: LPSCKEDEYPVGSECCPKCSPGYRVKEACGELTGTVCEPCPPGTYIAHLNGLSKCLQCQMCDPAMGLRASRNCSRTENAVCGCSPGHFCIVQDGDHCAACRAYATSSPGQRVQKGGTESQDTLCQNCPPGTFSPNGTLEECQHQTKCSWLVTKAGAGTSSSHWV
notes: extracellular domain; Bought; also called hHVEM; not shown: Fc fragment at the C-terminus
B9: LIGHT-86 (ligand)
chain: B1 chain with G77R, S87R, P88T, S116R, Q125W, L147S, L155R
notes: Printed mutations: G150R, S160R, L220S; Soluble protein carries an N-terminal His tag
B10: LIGHT-90 (ligand)
chain: B1 chain with S87G, P88G, S116R, Q125W, L147T, E149S, L155R
notes: Printed mutations: S160G, T161G, L220T, E222S; Soluble protein carries an N-terminal His tag

What follows are binders tested against T3, mouse LTβR extracellular domain fused with an Fc fragment at the C-terminus (mouse, UniProt P50284 31-223) (assay: phage ELISA).
T3 construct: extracellular domain; Bought; also called mLTβR; not shown: Fc fragment at the C-terminus
Procedure, shortened: (§1)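 Supernatants from fourth-round clones rescued with helper phage were applied to plates coated with 1 μg/ml target for 1 h at room temperature. Bound phage detected with HRP anti-M13 and TMB at OD450; clones were called positive when the target/BSA ratio was >3.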

T3 sequence (P50284 31-223): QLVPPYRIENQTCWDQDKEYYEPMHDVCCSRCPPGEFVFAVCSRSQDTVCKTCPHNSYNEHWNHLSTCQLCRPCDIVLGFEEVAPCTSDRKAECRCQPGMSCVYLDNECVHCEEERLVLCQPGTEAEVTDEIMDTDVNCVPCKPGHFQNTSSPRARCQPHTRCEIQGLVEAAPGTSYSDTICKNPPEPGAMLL

Row | Binder | binding result
1 | B1 | binds

These binders were tested against T1, mouse HVEM extracellular domain fused … (assay: phage ELISA).
Procedure, shortened: as §1

Row | Binder | binding result
2 | B2 | binds
3 | B3 | no binding
4 | B4 | no binding
5 | B5 | binds
6 | B1 | binds
7 | B6 | binds
8 | B7 | binds

The binders below were run against B2 (assay: ELISA on coated target-Fc).
Procedure: (§2) Nunc MaxiSorp 96-well plates (Thermofisher) were coated with target proteins (1 μg/ml), and then blocked with 2% BSA-PBS buffer for one hour. Serial dilutions of the LIGHT muteins were added with a maximum concentration of 200 ng/ml. The plates were incubated for one hour, washed four times with PBST, and then incubated with mouse anti-His tag antibody (#105327, Sino Biological) for 1 hour. The plates were further incubated with HRP-conjugated goat anti-mouse secondary antibody (#SSA006, Sino Biological) before being washed three times with PBST and treated with TMB substrate (#34029, ThermoFisher). The plates were read at 450 nm on a SpectraMax M5 microplate reader (Molecule Devices). The ELISA results were analyzed using GraphPad Prism 9.0 software and the EC50s (half maximal effective concentration) were summarized in Table 5-1 and Table 5-2.

Row | Binder | binding result
9 | B8 | binds

These binders were tested against T4, human LTβR extracellular domain fused with an Fc fragment at the C-terminus (human, UniProt P36941 31-227) (assay: ELISA on coated target-Fc).
T4 construct: extracellular domain; Bought; also called hLTβR; not shown: Fc fragment at the C-terminus
Procedure: as §2

T4 sequence (P36941 31-227): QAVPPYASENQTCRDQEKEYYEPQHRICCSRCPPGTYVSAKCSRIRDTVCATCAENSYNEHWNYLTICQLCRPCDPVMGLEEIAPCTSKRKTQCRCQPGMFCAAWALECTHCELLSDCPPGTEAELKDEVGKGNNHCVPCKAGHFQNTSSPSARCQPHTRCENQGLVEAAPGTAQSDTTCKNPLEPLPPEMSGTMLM

Row | Binder | EC50 [µg/mL]
10 | B2 | 0.22
11 | B3 | 0.0493
12 | B4 | 0.0762
13 | B5 | 0.0436
14 | B1 | 0.0538
15 | B6 | 0.109
16 | B7 | 0.0577

Each binder was assayed against T3, mouse LTβR extracellular domain fused … (assay: ELISA on coated target-Fc).
Procedure: as §2

Row | Binder | EC50 [µg/mL]
17 | B3 | 0.0605
18 | B5 | 0.0401
19 | B6 | 0.156
20 | B7 | 0.0279

What follows are binders tested against B8 (assay: ELISA on coated target-Fc).
Procedure: as §2

Row | Binder | EC50 [µg/mL]
21 | B7 | 0.019

Target: T4, human LTβR extracellular domain fused …
Test: ELISA on coated target-Fc
Remark: another data set of the same source
Procedure: as §2

Row | Binder | EC50 [nM]
22 | B2 | 0.365
23 | B3 | 0.262
24 | B4 | 0.328
25 | B7 | 0.33
26 | B9 | 0.336
27 | B10 | 1.78

Target: T3, mouse LTβR extracellular domain fused …
Test: ELISA on coated target-Fc
Remark: another data set of the same source
Procedure: as §2

Row | Binder | EC50 [nM]
28 | B2 | 0.885
29 | B3 | 0.8
30 | B4 | 2.06
31 | B7 | 2.07
32 | B9 | 0.327
33 | B10 | 0.978

Target: B8
Test: ELISA on coated target-Fc
Remark: another data set of the same source
Procedure: as §2

Row | Binder | EC50 [nM]
34 | B2 | 0.992
35 | B7 | 0.599
36 | B9 | 5.27
37 | B10 | 2.12

The binders below were run against T2, recombinant DcR3 protein (human DcR3 …) (assay: ELISA on coated DcR3-rabbit Fc).
Procedure: To test whether the muteins can bind to DcR3, the recombinant DcR3 protein was generated by linking human DcR3 residues 33-300 to the N-terminal of rabbit Fc. The recombinant proteins were expressed in Expi293F and affinity-purified using protein A beads, as previously described. Human DcR3 proteins were immobilized onto maxiSorp 96-well ELISA plates (Thermo Fisher) at a concentration of 0.5 μg/mL and then blocked with 2% BSA-PBS buffer for one hour. The LIGHT variants were added to the plates at various dilutions, with a maximum concentration of 10 nM. The plates were incubated for one hour, washed four times with PBST, and then incubated with mouse anti-His tag antibody (#105327, Sino Biological) for 1 hour. The plates were further incubated with HRP-conjugated goat anti-mouse secondary antibody (#SSA006, Sino Biological) before being washed three times with PBST and treated with TMB substrate (#34029, ThermoFisher). The plates were read at 450 nm on a SpectraMax M5 microplate reader (Molecule Devices). The ELISA results were analyzed using GraphPad Prism 9.0 software and the EC50s (half maximal effective concentration) were summarized in Table 5-2.

Row | Binder | EC50 [nM]
38 | B2 | 0.247
39 | B7 | 0.19
40 | B9 | 25.9
41 | B10 | 0.692

The binders below were run against B8 (assay: ELISA on coated target-Fc, Table 5-1).
Procedure: as §2

Row | Binder | binding result
42 | B3 | no binding
43 | B4 | no binding
44 | B5 | no binding
45 | B1 | no binding
46 | B6 | no binding
